Starred links: 1 amine or outer side, 2 acyl side, 3 side chain; linkers in the order of their positions; H or OH if unused. Positions of bridges follow the written chain, without caps; N, C: chain ends. Non-standard residues stand in square brackets, D forms with d. No end group written: not given here. TATB = O=C(C[*:1])N1CN(C(=O)C[*:2])CN(C(=O)C[*:3])C1; Gla = N[C@@H](CC(C(=O)O)C(=O)O)C(=O)O; Hyp = O=C(O)[C@@H]1C[C@@H](O)CN1; Tle = CC(C)(C)[C@H](N)C(=O)O

B1: BCY23182 (peptide)
peptide: CXXDAYLGCXSYCEPW
modifications: C[Cis-HyP][HyP]DAYLGC[tBuGly]SYCEPW: Cis-HyP at 2, HyP at 3, tBuGly at 10; N-terminal acetyl; C-terminal CONH2; Cys 1, 9, 13 bonded to TATB scaffold
notes: Bicyclic peptide
B2: BCY23209 (peptide)
peptide: CPXDAYLGCXSYCEPX
modifications: CP[HyP]DAYLGC[tBuGly]SYCEP[pCaPhe]: HyP at 3, tBuGly at 10, pCaPhe at 16; N-terminal acetyl; C-terminal CONH2; Cys 1, 9, 13 bonded to TATB scaffold
notes: Bicyclic peptide
B3: BCY23184 (peptide)
peptide: CPXDAYLGCXSYCEPW
modifications: CP[Cis-HyP]DAYLGC[tBuGly]SYCEPW: Cis-HyP at 3, tBuGly at 10; N-terminal acetyl; C-terminal CONH2; Cys 1, 9, 13 bonded to TATB scaffold
notes: Bicyclic peptide
B4: BCY23223 (peptide)
peptide: CP[Hyp]DAYQGC[Tle]SYCEPW-NH2
modifications: linker 1-9-13 via TATB; not fully specified (N-terminus); printed as CP[HyP]DAYQGC[tBuGly]SYCEPW
notes: Bicyclic peptide
B5: BCY23222 (peptide)
peptide: Ac-CP[Hyp]DAYNGC[Tle]SYCEPW-NH2
modifications: linker 1-9-13 via TATB
SMILES: CC(=O)N[C@H]1CSCC(=O)N2CN3CN(C2)C(=O)CSC[C@@H](C(=O)N[C@@H](CCC(=O)O)C(=O)N2CCC[C@H]2C(=O)N[C@@H](Cc2c[nH]c4ccccc24)C(N)=O)NC(=O)[C@H](Cc2ccc(O)cc2)NC(=O)[C@H](CO)NC(=O)[C@H](C(C)(C)C)NC(=O)[C@H](CSCC3=O)NC(=O)CNC(=O)[C@H](CC(N)=O)NC(=O)[C@H](Cc2ccc(O)cc2)NC(=O)[C@H](C)NC(=O)[C@H](CC(=O)O)NC(=O)[C@@H]2C[C@@H](O)CN2C(=O)[C@@H]2CCCN2C1=O
notes: Bicyclic peptide
B6: BCY23218 (peptide)
peptide: Ac-CP[Hyp]DAYSGC[Tle]SYCEPW-NH2
modifications: linker 1-9-13 via TATB
SMILES: CC(=O)N[C@H]1CSCC(=O)N2CN3CN(C2)C(=O)CSC[C@@H](C(=O)N[C@@H](CCC(=O)O)C(=O)N2CCC[C@H]2C(=O)N[C@@H](Cc2c[nH]c4ccccc24)C(N)=O)NC(=O)[C@H](Cc2ccc(O)cc2)NC(=O)[C@H](CO)NC(=O)[C@H](C(C)(C)C)NC(=O)[C@H](CSCC3=O)NC(=O)CNC(=O)[C@H](CO)NC(=O)[C@H](Cc2ccc(O)cc2)NC(=O)[C@H](C)NC(=O)[C@H](CC(=O)O)NC(=O)[C@@H]2C[C@@H](O)CN2C(=O)[C@@H]2CCCN2C1=O
notes: Bicyclic peptide
B7: BCY23221 (peptide)
peptide: Ac-CP[Hyp]DAYEGC[Tle]SYCEPW-NH2
modifications: linker 1-9-13 via TATB
SMILES: CC(=O)N[C@H]1CSCC(=O)N2CN3CN(C2)C(=O)CSC[C@@H](C(=O)N[C@@H](CCC(=O)O)C(=O)N2CCC[C@H]2C(=O)N[C@@H](Cc2c[nH]c4ccccc24)C(N)=O)NC(=O)[C@H](Cc2ccc(O)cc2)NC(=O)[C@H](CO)NC(=O)[C@H](C(C)(C)C)NC(=O)[C@H](CSCC3=O)NC(=O)CNC(=O)[C@H](CCC(=O)O)NC(=O)[C@H](Cc2ccc(O)cc2)NC(=O)[C@H](C)NC(=O)[C@H](CC(=O)O)NC(=O)[C@@H]2C[C@@H](O)CN2C(=O)[C@@H]2CCCN2C1=O
notes: Bicyclic peptide
B8: BCY23220 (peptide)
peptide: Ac-CP[Hyp]DAYDGC[Tle]SYCEPW-NH2
modifications: linker 1-9-13 via TATB
SMILES: CC(=O)N[C@H]1CSCC(=O)N2CN3CN(C2)C(=O)CSC[C@@H](C(=O)N[C@@H](CCC(=O)O)C(=O)N2CCC[C@H]2C(=O)N[C@@H](Cc2c[nH]c4ccccc24)C(N)=O)NC(=O)[C@H](Cc2ccc(O)cc2)NC(=O)[C@H](CO)NC(=O)[C@H](C(C)(C)C)NC(=O)[C@H](CSCC3=O)NC(=O)CNC(=O)[C@H](CC(=O)O)NC(=O)[C@H](Cc2ccc(O)cc2)NC(=O)[C@H](C)NC(=O)[C@H](CC(=O)O)NC(=O)[C@@H]2C[C@@H](O)CN2C(=O)[C@@H]2CCCN2C1=O
notes: Bicyclic peptide
B9: BCY23230 (peptide)
peptide: CPXDAYLGCXSYCDPW
modifications: CP[HyP]DAYLGC[tBuGly]SYCDPW: HyP at 3, tBuGly at 10; N-terminal acetyl; C-terminal CONH2; Cys 1, 9, 13 bonded to TATB scaffold
notes: Bicyclic peptide
B10: BCY23219 (peptide)
peptide: Ac-CP[Hyp]DAYTGC[Tle]SYCEPW-NH2
modifications: linker 1-9-13 via TATB
SMILES: CC(=O)N[C@H]1CSCC(=O)N2CN3CN(C2)C(=O)CSC[C@@H](C(=O)N[C@@H](CCC(=O)O)C(=O)N2CCC[C@H]2C(=O)N[C@@H](Cc2c[nH]c4ccccc24)C(N)=O)NC(=O)[C@H](Cc2ccc(O)cc2)NC(=O)[C@H](CO)NC(=O)[C@H](C(C)(C)C)NC(=O)[C@H](CSCC3=O)NC(=O)CNC(=O)[C@H]([C@@H](C)O)NC(=O)[C@H](Cc2ccc(O)cc2)NC(=O)[C@H](C)NC(=O)[C@H](CC(=O)O)NC(=O)[C@@H]2C[C@@H](O)CN2C(=O)[C@@H]2CCCN2C1=O
notes: Bicyclic peptide
B11: BCY23207 (peptide)
peptide: CPXDAYLGCXSYCEPY
modifications: CP[HyP]DAYLGC[tBuGly]SYCEPY: HyP at 3, tBuGly at 10; N-terminal acetyl; C-terminal CONH2; Cys 1, 9, 13 bonded to TATB scaffold
notes: Bicyclic peptide
B12: BCY23216 (peptide)
peptide: Ac-CP[Hyp]EAYLGC[Tle]SYCEPW-NH2
modifications: linker 1-9-13 via TATB
SMILES: CC(=O)N[C@H]1CSCC(=O)N2CN3CN(C2)C(=O)CSC[C@@H](C(=O)N[C@@H](CCC(=O)O)C(=O)N2CCC[C@H]2C(=O)N[C@@H](Cc2c[nH]c4ccccc24)C(N)=O)NC(=O)[C@H](Cc2ccc(O)cc2)NC(=O)[C@H](CO)NC(=O)[C@H](C(C)(C)C)NC(=O)[C@H](CSCC3=O)NC(=O)CNC(=O)[C@H](CC(C)C)NC(=O)[C@H](Cc2ccc(O)cc2)NC(=O)[C@H](C)NC(=O)[C@H](CCC(=O)O)NC(=O)[C@@H]2C[C@@H](O)CN2C(=O)[C@@H]2CCCN2C1=O
notes: Bicyclic peptide
B13: BCY23208 (peptide)
peptide: CPXDAYLGCXSYCEPX
modifications: CP[HyP]DAYLGC[tBuGly]SYCEP[DOPA]: HyP at 3, tBuGly at 10, DOPA at 16; N-terminal acetyl; C-terminal CONH2; Cys 1, 9, 13 bonded to TATB scaffold
notes: Bicyclic peptide
B14: BCY23211 (peptide)
peptide: CPXDAYLGCXSYCEPX
modifications: CP[HyP]DAYLGC[tBuGly]SYCEP[hTyr]: HyP at 3, tBuGly at 10, hTyr at 16; N-terminal acetyl; C-terminal CONH2; Cys 1, 9, 13 bonded to TATB scaffold
notes: Bicyclic peptide
B15: BCY23203 (peptide)
peptide: CPXDAYLGCXSXCEPW
modifications: CP[HyP]DAYLGC[tBuGly]S[hTyr]CEPW: HyP at 3, tBuGly at 10, hTyr at 12; N-terminal acetyl; C-terminal CONH2; Cys 1, 9, 13 bonded to TATB scaffold
notes: Bicyclic peptide
B16: BCY23204 (peptide)
peptide: CPXDAYLGCXSYCEXW
modifications: CP[HyP]DAYLGC[tBuGly]SYCE[HyP]W: HyP at 3 and 15, tBuGly at 10; N-terminal acetyl; C-terminal CONH2; Cys 1, 9, 13 bonded to TATB scaffold
notes: Bicyclic peptide
B17: BCY23205 (peptide)
peptide: CPXDAYLGCXSYCEXW
modifications: CP[HyP]DAYLGC[tBuGly]SYCE[Oxa]W: HyP at 3, tBuGly at 10, Oxa at 15; N-terminal acetyl; C-terminal CONH2; Cys 1, 9, 13 bonded to TATB scaffold
notes: Bicyclic peptide
B18: BCY23202 (peptide)
peptide: CPXDAYLGCXSXCEPW
modifications: CP[HyP]DAYLGC[tBuGly]S[pCoPhe]CEPW: HyP at 3, tBuGly at 10, pCoPhe at 12; N-terminal acetyl; C-terminal CONH2; Cys 1, 9, 13 bonded to TATB scaffold
notes: Bicyclic peptide
B19: BCY23217 (peptide)
peptide: Ac-CP[Hyp][Gla]AYLGC[Tle]SYCEPW-NH2
modifications: linker 1-9-13 via TATB
SMILES: CC(=O)N[C@H]1CSCC(=O)N2CN3CN(C2)C(=O)CSC[C@@H](C(=O)N[C@@H](CCC(=O)O)C(=O)N2CCC[C@H]2C(=O)N[C@@H](Cc2c[nH]c4ccccc24)C(N)=O)NC(=O)[C@H](Cc2ccc(O)cc2)NC(=O)[C@H](CO)NC(=O)[C@H](C(C)(C)C)NC(=O)[C@H](CSCC3=O)NC(=O)CNC(=O)[C@H](CC(C)C)NC(=O)[C@H](Cc2ccc(O)cc2)NC(=O)[C@H](C)NC(=O)[C@H](CC(C(=O)O)C(=O)O)NC(=O)[C@@H]2C[C@@H](O)CN2C(=O)[C@@H]2CCCN2C1=O
notes: Bicyclic peptide
B20: BCY23210 (peptide)
peptide: CPXDAYLGCXSYCEPX
modifications: CP[HyP]DAYLGC[tBuGly]SYCEP[pCoPhe]: HyP at 3, tBuGly at 10, pCoPhe at 16; N-terminal acetyl; C-terminal CONH2; Cys 1, 9, 13 bonded to TATB scaffold
notes: Bicyclic peptide
B21: BCY23180 (peptide)
peptide: CXXDAYLGCXSYCEPW
modifications: not fully specified; C[HyP][HyP]DAYLGC[tBuGly]SYCEPW: HyP at 2 and 3, tBuGly at 10; N-terminal acetyl; C-terminal CONH2; Cys 1, 9, 13 bonded to TATB scaffold
notes: Bicyclic peptide

The target of this assay is T1, Recombinant human His-tagged TfR1 (a.a. 89-760) (ACRO Biosystems, CD1-H5243) (human, UniProt P02786 89-760).
T1 construct: range 89-760; Bought protein; Captured and amine-coupled on an NTA chip; also called human TfR1; transferrin receptor 1; not shown: His tag (printed 'Hiss-tagged')
T1 sequence (P02786 89-760 limits assumed): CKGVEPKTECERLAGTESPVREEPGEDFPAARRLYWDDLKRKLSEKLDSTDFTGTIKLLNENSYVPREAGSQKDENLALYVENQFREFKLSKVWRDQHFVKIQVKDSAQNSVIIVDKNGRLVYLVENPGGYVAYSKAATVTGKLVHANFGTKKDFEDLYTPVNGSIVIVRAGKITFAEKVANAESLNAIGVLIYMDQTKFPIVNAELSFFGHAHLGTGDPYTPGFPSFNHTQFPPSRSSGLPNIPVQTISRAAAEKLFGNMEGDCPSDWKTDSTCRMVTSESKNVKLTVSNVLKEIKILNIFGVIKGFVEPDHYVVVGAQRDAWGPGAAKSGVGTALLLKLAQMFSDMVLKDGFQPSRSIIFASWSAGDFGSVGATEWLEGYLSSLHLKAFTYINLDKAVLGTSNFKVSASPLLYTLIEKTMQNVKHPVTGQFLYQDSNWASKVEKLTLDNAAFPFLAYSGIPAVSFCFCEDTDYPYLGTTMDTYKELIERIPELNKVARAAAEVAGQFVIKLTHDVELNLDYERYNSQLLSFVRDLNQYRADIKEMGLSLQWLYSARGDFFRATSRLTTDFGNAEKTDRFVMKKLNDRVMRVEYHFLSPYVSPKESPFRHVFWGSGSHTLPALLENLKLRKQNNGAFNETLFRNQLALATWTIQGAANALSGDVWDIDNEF
Put plainly: SPR (Biacore), TfR1 captured/coupled on NTA chip, peptide as analyte. On the technique in general: SPR reads the build-up and loss of mass on a sensor chip optically.
Consider B1, for which the Kd was 22 nM.
Consider B2, for which the Kd is 5.6 nM.
On to B3, for which the Kd came out at 13 nM.
For B4, the Kd is 50 nM.
For the molecule B5, the Kd came out at 58 nM.
The result for B6 reads 55 nM.
In the case of B7, the Kd was found to be 120 nM.
In the case of B8, the Kd turned out to be 72 nM.
With B9, the Kd came out at 15 nM.
Consider B10, for which the Kd was found to be 51 nM.
With B11 the figure was 7.7 nM; with B12, 158 nM.
With B13, the Kd stood at 6 nM.
With B14, the dissociation constant Kd stood at 7.7 nM.
With B15 the figure was 283 nM; with B16, 9 nM; with B17, 11 nM.
With B18 the figure was 23 nM; with B19, 117 nM; with B20, 8.6 nM.
Turning to B21, the Kd was 50 nM.

As usually defined, the Kd is the equilibrium constant for the complex coming apart.

The values above are taken from US20250276073A1 (Bicycle, published 2025).
